The values below come from patent US20220267441A1 (VOR BIOPHARMA, published 2022).

One may read the EC50 as the concentration that produces a half-maximal response. Read a low EC50 as an effect from little substance. The koff is the first-order rate constant of dissociation. Read a high koff as a short-lived complex. A word on the kon: it is the second-order rate constant of association. Low values mean slow association, high ones fast association. What is called Kd is the equilibrium constant for the complex coming apart. Low readings indicate higher affinity, high ones lower affinity.

Numbering of substitutions follows the chain as printed. Names and notes keep the numbering of the source. Where two headings read alike, the source gives them in different places.

Test [1] deals with T1, cynomolgus CD45 on live cells (primary cynomolgus PBMCs) (cynomolgus monkey).
T1 construct: Endogenous CD45 on PBMCs; also called cyno CD45; Cyno PBMC
T1 chain: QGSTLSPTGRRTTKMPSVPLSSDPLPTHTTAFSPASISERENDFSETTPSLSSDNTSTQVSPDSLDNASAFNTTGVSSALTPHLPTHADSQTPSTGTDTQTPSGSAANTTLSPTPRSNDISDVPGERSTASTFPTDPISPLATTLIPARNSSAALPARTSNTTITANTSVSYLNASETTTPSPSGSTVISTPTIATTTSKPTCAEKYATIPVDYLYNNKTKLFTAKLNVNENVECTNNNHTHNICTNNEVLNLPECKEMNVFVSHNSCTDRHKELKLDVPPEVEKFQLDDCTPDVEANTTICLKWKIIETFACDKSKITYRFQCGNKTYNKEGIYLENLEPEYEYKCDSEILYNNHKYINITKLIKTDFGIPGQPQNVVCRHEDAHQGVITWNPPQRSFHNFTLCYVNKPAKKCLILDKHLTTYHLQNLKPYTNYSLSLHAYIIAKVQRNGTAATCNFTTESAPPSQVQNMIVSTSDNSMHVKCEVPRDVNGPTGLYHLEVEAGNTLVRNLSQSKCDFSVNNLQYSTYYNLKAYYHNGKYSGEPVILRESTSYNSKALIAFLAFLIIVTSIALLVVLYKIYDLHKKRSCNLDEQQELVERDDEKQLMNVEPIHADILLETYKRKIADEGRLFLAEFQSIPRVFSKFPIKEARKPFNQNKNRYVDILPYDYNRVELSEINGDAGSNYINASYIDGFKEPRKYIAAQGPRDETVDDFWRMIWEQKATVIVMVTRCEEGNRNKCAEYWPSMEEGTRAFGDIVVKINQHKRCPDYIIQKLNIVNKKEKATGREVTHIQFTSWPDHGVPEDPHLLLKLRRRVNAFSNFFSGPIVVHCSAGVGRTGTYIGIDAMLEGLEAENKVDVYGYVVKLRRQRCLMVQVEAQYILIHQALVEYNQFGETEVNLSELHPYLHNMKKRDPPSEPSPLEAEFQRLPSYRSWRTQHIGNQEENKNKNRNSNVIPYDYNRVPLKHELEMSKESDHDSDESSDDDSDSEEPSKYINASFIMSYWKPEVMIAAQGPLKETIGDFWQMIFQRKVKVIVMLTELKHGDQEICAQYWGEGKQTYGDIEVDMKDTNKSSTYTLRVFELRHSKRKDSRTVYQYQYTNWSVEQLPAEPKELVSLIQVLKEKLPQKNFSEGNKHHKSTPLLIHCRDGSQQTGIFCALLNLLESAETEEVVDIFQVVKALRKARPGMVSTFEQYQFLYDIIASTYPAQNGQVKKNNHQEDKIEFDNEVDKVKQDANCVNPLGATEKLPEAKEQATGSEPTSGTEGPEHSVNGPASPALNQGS
The test is described as follows: flow cytometry on cynomolgus PBMCs, overnight 37 C, AF488 anti-human IgG. In general terms: In flow cytometry, cells or beads pass a laser one at a time.

The target in test [2] is T1, cynomolgus CD45 on live cells (primary …). As to the kind of experiment: flow cytometry on PBMCs; cyno EC50 against human EC50.
For test [3], the target named is T2, human CD45 on live cells (REH-1 cells, primary human PBMCs) (human, UniProt P08575 26-1306).
T2 construct: Endogenous CD45
T2 sequence: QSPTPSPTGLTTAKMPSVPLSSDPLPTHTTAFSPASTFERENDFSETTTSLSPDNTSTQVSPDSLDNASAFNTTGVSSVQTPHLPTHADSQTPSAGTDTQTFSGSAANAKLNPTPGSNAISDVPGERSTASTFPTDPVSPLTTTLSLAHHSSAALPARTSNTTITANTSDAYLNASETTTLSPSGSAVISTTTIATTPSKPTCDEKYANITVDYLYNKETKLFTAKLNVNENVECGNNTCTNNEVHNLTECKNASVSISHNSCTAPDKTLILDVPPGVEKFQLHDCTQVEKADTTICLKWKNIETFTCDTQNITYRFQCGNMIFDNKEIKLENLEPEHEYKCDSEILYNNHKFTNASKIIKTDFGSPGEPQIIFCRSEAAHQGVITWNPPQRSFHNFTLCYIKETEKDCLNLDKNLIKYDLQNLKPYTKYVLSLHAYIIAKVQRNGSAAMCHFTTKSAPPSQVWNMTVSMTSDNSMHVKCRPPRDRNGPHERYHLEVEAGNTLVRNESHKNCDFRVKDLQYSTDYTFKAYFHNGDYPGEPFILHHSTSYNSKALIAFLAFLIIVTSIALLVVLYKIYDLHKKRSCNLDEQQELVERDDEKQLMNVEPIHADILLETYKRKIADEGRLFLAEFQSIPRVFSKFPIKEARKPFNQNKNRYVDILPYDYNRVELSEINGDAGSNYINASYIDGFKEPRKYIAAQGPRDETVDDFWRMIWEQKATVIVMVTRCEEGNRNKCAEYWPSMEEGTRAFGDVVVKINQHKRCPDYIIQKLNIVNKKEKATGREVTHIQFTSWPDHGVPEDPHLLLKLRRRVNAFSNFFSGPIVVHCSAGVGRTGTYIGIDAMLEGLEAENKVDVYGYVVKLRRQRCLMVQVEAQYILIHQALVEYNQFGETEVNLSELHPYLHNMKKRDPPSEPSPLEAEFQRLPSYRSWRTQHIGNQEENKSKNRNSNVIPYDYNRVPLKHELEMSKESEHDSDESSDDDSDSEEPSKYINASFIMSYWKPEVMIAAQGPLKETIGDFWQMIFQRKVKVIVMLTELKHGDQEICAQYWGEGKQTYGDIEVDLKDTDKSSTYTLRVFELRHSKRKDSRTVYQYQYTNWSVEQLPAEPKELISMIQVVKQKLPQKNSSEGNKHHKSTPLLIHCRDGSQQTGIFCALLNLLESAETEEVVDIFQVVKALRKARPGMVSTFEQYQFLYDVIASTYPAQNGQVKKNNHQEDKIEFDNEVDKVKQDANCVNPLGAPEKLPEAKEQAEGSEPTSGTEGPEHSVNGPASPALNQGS
The test is described as follows: flow cytometry on human PBMCs, overnight 37 C, AF488 anti-human IgG.

Test [4] has as its target T3, purified human CD45 ectodomain (human CD45RABC antigen) (human, UniProt P08575 26-577).
T3 construct: also called hCD45
T3 sequence: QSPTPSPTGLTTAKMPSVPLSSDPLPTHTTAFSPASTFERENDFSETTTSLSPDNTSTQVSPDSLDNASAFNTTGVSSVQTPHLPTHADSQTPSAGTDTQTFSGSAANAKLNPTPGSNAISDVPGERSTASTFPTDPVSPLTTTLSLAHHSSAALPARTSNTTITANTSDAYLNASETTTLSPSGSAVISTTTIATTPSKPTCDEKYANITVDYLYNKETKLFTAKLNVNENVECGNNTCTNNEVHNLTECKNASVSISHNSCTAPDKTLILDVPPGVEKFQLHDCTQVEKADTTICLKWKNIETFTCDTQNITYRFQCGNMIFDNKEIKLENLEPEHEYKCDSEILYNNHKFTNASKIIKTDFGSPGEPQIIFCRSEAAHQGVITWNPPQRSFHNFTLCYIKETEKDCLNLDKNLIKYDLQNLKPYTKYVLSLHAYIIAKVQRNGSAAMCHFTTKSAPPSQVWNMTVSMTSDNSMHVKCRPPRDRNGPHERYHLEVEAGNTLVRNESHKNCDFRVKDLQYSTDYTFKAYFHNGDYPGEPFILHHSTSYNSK
The test is described as follows: BLI (Octet Red96), IgG on anti-human Fc sensor, 100 nM CD45 ectodomain, 1:1 fit.

Test [5] has as its target T1, cynomolgus CD45 on live cells (primary …). As to the kind of experiment: flow cytometry on cynomolgus PBMCs, overnight 37 C, AF488 anti-human IgG.
Test [6] deals with T2, human CD45 on live cells (REH-1 cells, …). The test is described as follows: flow cytometry on human PBMCs, overnight 37 C, AF488 anti-human IgG. This is another data set of the same source.
Test [7] shares this target. As to the kind of experiment: flow cytometry on REH-1 cells, overnight 37 C, AF488 anti-human IgG.
In test [8] the target is T1, cynomolgus CD45 on live cells (primary …). As to the kind of experiment: flow cytometry on PBMCs; cyno EC50 against human EC50.
The target is the same in test [9]. As to the kind of experiment: flow cytometry on cynomolgus PBMCs, overnight 37 C, AF488 anti-human IgG.
Test [10] addresses T3, purified human CD45 ectodomain (human …). The test is described as follows: BLI (Octet Red96), antibody on anti-human Fc sensor, 100 nM human CD45 ectodomain, 1:1 fit. In general terms: In BLI a coated tip is dipped into the sample, and binding shifts an interference pattern.
The target of test [11] is T1, cynomolgus CD45 on live cells (primary …). The test is described as follows: flow cytometry on PBMCs; cyno EC50 against human EC50.
Test [12] shares this target. As to the kind of experiment: flow cytometry on cynomolgus PBMCs, overnight 37 C, AF488 anti-human IgG.
In test [13] the target is T2, human CD45 on live cells (REH-1 cells, …). As to the kind of experiment: flow cytometry on human PBMCs, overnight 37 C, AF488 anti-human IgG. The source holds these as a separate data set.
For test [14] the target is unchanged. The description is as above. This is another data set of the same source.

B1: AbA_D265C_LALA_H435A (antibody, human IgG1, kappa, L234A L235A, V domains shown)
VH: EVQLLESGGGLVQPGGSLRLSCAASGFTFNNYWMTWVRQAPGKGLEWVSSISSSGGSIYYPDRVKGRFTISRDNSKNTLYLQMNSLRAEDTAVYYCARDERWAGAMDAWGQGTTVTVSS
VL: DIQMTQSPSSLSASVGDRVTITCKASQNINKNLDWYQQKPGKAPKLLIYETNNLQTGVPSRFSGSGSGTDFTLTISSLQPEDFATYYCYQHNSRFTFGQGTKLEIKR
notes: also called Fc variant of AbA
As for B1, the EC50 in test [1] came to 3.4 nM; in test [3], 2.3 nM. Besides, the “Cyno/Human Ratio (EC50)” value in test [2] was 1.49 ratio.

B2: Antibody 1 (Ab1) (antibody, V domains shown)
VH: QVQLVESGGGLVKPGGSLRLSCAASGFTFSSYSMNWVRQAPGKGLEWVSYISSSSSTIYYADSVKGRFTISRDNAKNSLYLQMNSLRAEDTAVYYCARGGQYYYDSSRYGEVAFDIWGQGTMVTVSS
VL: not shown
notes: Fully human IgG from yeast display; also called Parent 1; parent clone Ab1
For B2, in [4], the dissociation rate constant (koff) was 0.0499 s⁻¹ and the kon is 458000 M⁻¹ s⁻¹.

B3: Ab5 (D265C LALA H435A) (antibody, human IgG1, kappa, L234A L235A, V domains shown)
VH: B2 VH with Q1E, K13Q, S30E, S31A, S53L, S55G, S56A, Y59H, D105T, R108D
VL: DIVMTQSPLSLPVTPGEPASISCRSSQSLVSSGYNYLDWYLQKPGQSPQLLIYFGSSRASGVPDRFSGSGSGTDFTLKISRVEAEDVGVYYCMQRRRTPWSFGGGTKVEIKR
Take B3: the EC50 in test [5] came out at 1.3 nM; in test [6], 1.4 nM; in [7], 0.3 nM.

B4: Ab7 (D265C LALA H435A) (antibody, human IgG1, kappa, L234A L235A, V domains shown)
VH: B2 VH with S30G, S31G, S53I, S55G, S56A, Y59T, R108D
VL: DIVMTQSPLSLPVTPGEPASISCRSSQSLVSSGYNYLDWYLQKPGQSPQLLIYFGSSRASGVPDRFSGSGSGTDFTLKISRVEAEDVGVYYCMQRRRTPPFTFGGGTKVEIKR
On to B4, for which the EC50 in test [5] amounted to 1.3 nM; in test [6], 1 nM; in test [7], 0.2 nM.

B5: Antibody B (AbB) (antibody, IgG1, V domains shown)
VH: EVQLVESGGGLVQPGGSLRLSCAASGFTFTNFWMAWIRQAPGKGLEWVASISSSGGSIYYPDSVKDRFTISRDNSKNTLYLQMNSLRAEDTAVYYCVKFHHYSGGGDAWGQGTLVTVSS
VL: DIQMTQSPSSLSASVGDRVTITCKASQNINKYLDWYQQKPGKAPKLLIHYTNNLHTGIPSRFSGSGSGTDYTLTISSLQPEDFATYYCLQHSSRWTFGGGTKVEIK
notes: also called humanized clone AbB
For the molecule B5, the “Fold Cyno v/s Human (EC50)” value in [8] is 1.9 fold. Besides, the EC50 in [9] was found to be 1.42 nM; in test [12], 1.12 nM; in test [13], 0.76 nM; in test [14], 0.67 nM. This molecule returned a dissociation constant (Kd) in test [10] of 5.46 nM. This molecule registered a koff in test [10] of 0.000239 s⁻¹. Also, the kon in test [10] stood at 43800 M⁻¹ s⁻¹. Moreover, in test [11], the “Fold Cyno vs Human (EC50)” value is 1.7 fold.

B6: AbB_D265C_LALA_H435A (antibody, human IgG1, kappa, L234A L235A, V domains shown)
VH: B5 VH
VL: DIQMTQSPSSLSASVGDRVTITCKASQNINKYLDWYQQKPGKAPKLLIHYTNNLHTGIPSRFSGSGSGTDYTLTISSLQPEDFATYYCLQHSSRWTFGGGTKVEIKR
notes: also called Fc variant of AbB
As for B6, the EC50 in test [1] turned out to be 2.9 nM; in test [3], 2.2 nM. In test [2], the “Cyno/Human Ratio (EC50)” value is 1.36 ratio.

B7: AbC_D265C_LALA_H435A (antibody, human IgG1, kappa, L234A L235A, V domains shown)
VH: EVQLVESGGGLVQPGGSLRLSCAASGFTFNNYWMTWVRQAPGKGLEWVSSISSSGGSIYYPDSVKDRFTISRDNAKNSLYLQMNSLRAEDMAVYYCARLYYYDGGGDAWGQGTLVTVSS
VL: B6 VL with D1G, N28D, H49Y, Y50N, S92I
notes: also called Fc variant of AbC
B7: the EC50 came out at 3.3 nM in test [1] and 2.2 nM in test [3]. For the same molecule, the “Cyno/Human Ratio (EC50)” value in [2] came out at 1.49 ratio.
